Among the data in article PMC12304082 are rate of reduction of 700 nM soluble OmcA by whole S. oneidensis ΔmtrC/omcA cells producing MtrC (DI,II)AB, against S. oneidensis MR-1 (fold lower rate) values, retold here.

For this assay, the target named is MtrC_(DI,II,memb), lipid-anchored truncated MtrC comprised only of domains I and II (Shewanella oneidensis MR-1) (UniProt Q8EG34).

For “soluble OmcA (from UniProt Q8EG33 1-735) (natural protein)”, the rate of reduction of 700 nM soluble OmcA by whole S. oneidensis ΔmtrC/omcA cells producing MtrC (DI,II)AB, against S. oneidensis MR-1 (fold lower rate) was 4.
